The text below walks through data of patent US7560245B2, “Luciferase and methods for measuring intracellular ATP using the same” (Kikkoman Corporation, priority 1997, dated 2009).

Changes are numbered by the printed parent chain. Where “and” joins values, the source holds several entries; their conditions need not be identical. Equal entries are not always repeated.

Data set [1] in a line: Surfactant resistance: change of light emission with time, 0.4% benzalkonium chloride. The conditions noted are these: for decay of light emission with time: FIG. 2 and 3. Format: biochemical. On the procedure: (§1) Enzyme samples were obtained by preparing luciferase samples derived from various firefly species using enzyme-diluted solution (1 mM EDTA, 1 mM 2-mercaptoethanol, 5% glycerol, 50 mM HEPES, (pH7.5)) to achieve 0.5 MLU/ml concentration.
(§2) 50 μl of 0.4% benzalkonium chloride (25 mM Tricine at pH 7.75) and then 50 μl of the enzyme sample were added to 100 μl of substrate solution (4 mM ATP, 0.4 mM luciferin, 10 mM magnesium sulfate, 50 mM HEPES (pH 7.5)). After the solution was stirred for 5 seconds, the light emission was measured every second using Berthold Lumat LB-9501 for 1 minute.
Along the vertical axis in this figure, the relative ratio of the light emission was plotted with the initial amount of light emitted considered to be 100% upon use of 25 mM Tricine (pH 7.75) instead of 0.4% benzalkonium chloride.
(§3) To compare surfactant resistance of mutant luciferase with that of known luciferase, changes in emission with time were measured according to the aforementioned methods of measuring surfactant resistance.

A short description of data set [2]: Comparison of emission rate (remaining activity) with 0.4% benzalkonium chloride. The class given is biochemical. The conditions noted are these: emission with 0.4% benzalkonium chloride divided by control (25 mM Tricine). On the procedure: as §1, §2
The influence of the enzyme solution, substrate solution and benzalkonium chloride used when measuring change with time, on the measurement values taken under actual emission measurement conditions, was examined.
In addition, the emission rate (remaining activity) was calculated by dividing the light emission measured in the presence of 0.4% benzalkonium chloride by a control value. Here the control value was the light emission upon use of 25 mM Tricine at pH 7.75 instead of 0.4% benzalkonium chloride.

Data set [3] deals with P. aeruginosa ATCC 27853. Put plainly: Detection of intracellular ATP, 0.25% BAC extraction reagent. The class given is cell-based, Pseudomonas aeruginosa. To be noted: for Relative ratio (%): TCA extraction method = 100%. As for the experimental part:
(§4) A standard technique used herein was TCA extraction method wherein intracellular ATP is extracted using trichloroacetic acid (TCA) and the amount of ATP extracted is measured using luciferin-luciferase luminescence reaction. TCA extraction method is excellent in extraction efficiency. Further in TCA extraction method no inhibition of luminescence reaction is caused by TCA because emission is measured after the sample containing TCA is diluted 1:100. Because of this dilution, however, TCA extraction method is complicated and can cause a decrease in the measuring sensitivity. Benzalkonium chloride (BAC, Japanese Pharmacopoeia) was used. ATP extraction reagent was prepared by dissolving this surfactant at 0.25% concentration into 25 mM Tricine (pH 7.75). Four strains, Escherichia coli (ATCC 25922), Staphylococcus aureus (ATCC 25923), Pseudomonas aeruginosa (ATCC 27853) and Enterococcus faecalis (ATCC 29212) were used. In standard techniques, a sample, undiluted solution, was prepared by culturing the prescribed microorganisms on a normal broth medium (produced by Eiken chemical Co., Ltd.) at 35° C. overnight. In the method of the present invention, a sample diluted solution was prepared by diluting an undiluted solution of the culture fluid to 1:100 with sterile water. Luminescence reagent was prepared by adding various luciferase to solution containing 0.15 mM luciferin, 6 mM EDTA, 15 mM magnesium acetate, 0.2 mM dithiothreitol, 0.5% BSA and 25 mM HEPES (pH 7.75). The amount of luciferase to be added was prepared such that the light emission produced when 100 μl of 2×10^−8 M ATP standard solution was added to 100 μl of the luminescence reagent would be the same amount of the light emission produced when a luminescence reagent attached to Luciferase LU (Kikkoman Corporation) was used. ATP extraction reagent 100 μl was added to 100 μl of a sample. The solution was allowed to stand for 20 seconds at room temperature. Then 100 μl of the luminescence reagent was added to this solution. Immediately after addition, the light emission was measured using Lumat LB-9501 produced by Berthold. 10% trichloro acetate solution 100 μl was added to 100 μl of a sample and the solution was allowed to stand for 1 minute. 25 mM Tricine (pH 7.75) 9.8 ml was added to this extract, and then the extract was well stirred. 25 mM Tricine (pH 7.75) and 100 μl of a luminescence reagent attached to CheckLite LU (produced by Kikkoman Corporation) were added to 100 µl of the sample. Immediately after addition, the light emission was measured using Lumat LB-9501 produced by Berthold. The relative ratio of the light emissions obtained by the use of the luminescence reagents using various luciferase types is also shown in these tables. Here the light emission obtained by the standard technique (TCA extraction method) was defined as 100%.

The nature of data set [4]: Comparison of emission rate (remaining activity) with 0.4% benzalkonium chloride. The class given is biochemical. To be noted: for Light emission (RLU) Without extraction reagent: 25 mM Tricine pH 7.75 instead of 0.4% benzalkonium chloride; for Light emission (RLU) Without extraction reagent / Light emission (RLU) With extraction reagent: 5 seconds waiting, 3 seconds measuring; for Light emission (RLU) With extraction reagent: 0.4% benzalkonium chloride.

Data set [5] concerns S. aureus ATCC 25923. The data set is described as follows: Detection of intracellular ATP, 0.25% BAC extraction reagent. To be noted: for Relative ratio (%): TCA extraction method = 100%. The class given is cell-based, Staphylococcus aureus. On the procedure:
as §4

For data set [6], the system named is Escherichia coli, Staphylococcus aureus, Pseudomonas aeruginosa and Enterococcus faecalis. Put plainly: Detection of intracellular ATP, summary over the four strains. The conditions noted are these: 0.25% BAC extraction reagent. Format: cell-based. On the procedure:
as §4, with “In standard techniques, a sample, undiluted solution, was prepared by culturing the prescribed microorganisms on a normal broth medium (produced by Eiken chemical Co., Ltd.) at 35° C. overnight. In the method of the present invention, a sample diluted solution was prepared by diluting an undiluted solution of the culture fluid to 1:100 with sterile water.” left out, “ATP extraction reagent 100 μl was added to 100 μl of a sample. The solution was allowed to stand for 20 seconds at room temperature.” left out, “10% trichloro acetate solution 100 μl was added to 100 μl of a sample and the solution was allowed to stand for 1 minute. 25 mM Tricine (pH 7.75) 9.8 ml was added to this extract, and then the extract was well stirred.” left out, “Here the light emission obtained by the standard technique (TCA extraction method) was defined as 100%.” left out

In data set [7] the test system is E. faecalis ATCC 29212. The data set is described as follows: Detection of intracellular ATP, 0.25% BAC extraction reagent. To be noted: for Relative ratio (%): TCA extraction method = 100%. Format: cell-based, Enterococcus faecalis. On the procedure: as §4
Data set [8] relates to E. coli ATCC 25922. The data set is described as above. The class given is cell-based, Escherichia coli. The conditions noted are these: for Relative ratio (%): TCA extraction method = 100%. As for the experimental part:
as §4

A short description of data set [9]: Comparison of IC50: benzalkonium chloride concentration inactivating luciferase by 50%. Format: biochemical. To be noted: 10 minutes contact at room temperature, 0.01 to 0.1% benzalkonium chloride. On the procedure: Benzalkonium chloride and various luciferases were contacted with each other for 10 minutes. Then the benzalkonium chloride concentration (IC50), at which activity is inactivated by 50% was determined. Equal amounts of luciferase solution prepared at this concentration and 0.01 to 0.1% benzalkonium chloride were mixed, and then allowed to stand for 10 minutes at room temperature. Subsequently, 100 μl of substrate solution was added to the mixture. Immediately after addition, the light emission was measured using Berthold Lumat LB-9501.

Data set [10] in a line: Surfactant resistance: change of light emission with time, 0.8% benzethonium chloride. Format: biochemical. To be noted: FIG. 4. As for the experimental part:
as §1
[…] After the solution was stirred for 5 seconds, the light emission was measured every second using Berthold Lumat LB-9501 for 1 minute.
as §3

Consider “North American firefly: luciferase derived from North American firefly, a commercial product (Sigma, L-9506) [reference compound]”, for which, in data set [1] (FIG. 2), the initial light emission result is “low in the initial light emission”. In [1], the “decay of light emission with time” value is given as “decayed rapidly”. Further, the “Emission rate (remaining activity)” value in data set [2] came out at 21.6%. For the same molecule, the “Measured value (RLU)” value in data set [3] came to 553 RLU; in data set [5] it was 163 RLU; in [7] it was 113 RLU; in [8] it was 153 RLU. The “Relative ratio (%)” value is reported as “(0.3) %” in data set [3], “(0.1) %” in data set [5], “(0.1) %” in data set [7] and “(0.1) %” in data set [8]. Besides, the “Light emission (RLU) Without extraction reagent” value in [4] is on record as 452563 RLU. Besides, the “Light emission (RLU) With extraction reagent” value in [4] is listed as 97790 RLU. Besides, the “luciferase activity (remaining)” value in data set [4] (in the presence of 0.1% benzalkonium chloride) is on record as “about 20%”. Besides, in data set [6], the “emission of the luminescence reagent” value is “No emission was observed”. In data set [9], the “IC50 (benzalkonium chloride concentration at which activity is inactivated by 50%)” value worked out at 0.014%.

B1: HIK: Polypeptide of SEQ ID NO:6; HEIKE firefly luciferase with Ala217 substituted by Ile and Glu490 by Lys (protein, listed as Luciola lateralis)
chain: MENMENDENIVYGPEPFYPIEEGSAGAQLRKYMDRYAKLGAIAFTNALTGVDYTYAEYLEKSCCLGEALKNYGLVVDGRIALCSENCEEFFIPVLAGLFIGVGVAPTNEIYTLRELVHSLGISKPTIVFSSKKGLDKVITVQKTVTAIKTIVILDSKVDYRGYQSMDNFIKKNTPQGFKGSSFKTVEVNRKEQVALIMNSSGSTGLPKGVQLTHENIVTRFSHARDPIYGNQVSPGTAILTVVPFHHGFGMFTTLGYLTCGFRIVMLTKFDEETFLKTLQDYKCSSVILVPTLFAILNRSELLDKYDLSNLVEIASGGAPLSKEIGEAVARRFNLPGVRQGYGLTETTSAIIITPEGDDKPGASGKVVPLFKAKVIDLDTKKTLGPNRRGEVCVKGPMLMKGYVDNPEATREIIDEEGWLHTGDIGYYDEEKHFFIVDRLKSLIKYKGYQVPPAELESVLLQHPNIFDAGVAGVPDPIAGELPGAVVVLKKGKSMTEKEVMDYVASQVSNAKRLRGGVRFVDEVPKGLTGKIDGKAIREILKKPVAKM
On to B1, for which the “decay of light emission with time” value is recorded as “decayed more slowly than that of the HEIKE I mutant” in data set [1] and “more slowly than that of HEIKE I mutant” in [10]. Moreover, the “Emission rate (remaining activity)” value in data set [2] is given as 89.3%. For the same molecule, the “Measured value (RLU)” value in data set [3] came to 131134 RLU; in data set [5], 76533 RLU; in [7], 7914 RLU; in data set [8], 97073 RLU. Besides, the “Relative ratio (%)” value was “(78.0) %” in data set [3], “(58.8) %” in data set [5], “(63.7) %” in data set [7] and “(73.1) %” in data set [8]. Further, in [4], the “Light emission (RLU) Without extraction reagent” value is listed as 386429 RLU. For the same molecule, the “Light emission (RLU) With extraction reagent” value in data set [4] stood at 345159 RLU. Also, the “emission of the luminescence reagent” value in [6] is “more intense than that from wild-type HEIKE luciferase and thermostable luciferase”. Moreover, the “IC50 (benzalkonium chloride concentration at which activity is inactivated by 50%)” value in data set [9] was 0.032%.

B2: HLK: Polypeptide of SEQ ID NO:4; HEIKE firefly luciferase with Ala217 substituted by Leu and Glu490 by Lys (protein, listed as Luciola lateralis)
chain: B1 chain with I217L
Turning to B2, the entries for the “decay of light emission with time” value in data set [1] and in data set [10] were “slower decay in the light emission” and “slower decay in light emission than that of HEIKE L mutant”, respectively. Also, in [1] (compared with HEIKE L mutant, FIG. 3), the “improvement of initial light emission” value is “about 20%”. Moreover, the “Emission rate (remaining activity)” value in [2] is 101.7% and ~100%. For the same molecule, the “Measured value (RLU)” value in data set [3] came to 131815 RLU; in data set [5], 72182 RLU; in data set [7], 7998 RLU; in [8] it was 87981 RLU. The “Relative ratio (%)” value in data set [3] is on record as “(78.4) %”; in data set [5] it was “(55.4) %”; in data set [7] it was “(64.4) %”; in [8], “(66.3) %”. Further, the “Light emission (RLU) Without extraction reagent” value in data set [4] came to 390289 RLU. For the same molecule, in data set [4], the “Light emission (RLU) With extraction reagent” value is listed as 396764 RLU. The “emission of the luminescence reagent” value in [6] was “more intense than that from wild-type HEIKE luciferase and thermostable luciferase”. The “IC50 (benzalkonium chloride concentration at which activity is inactivated by 50%)” value in data set [9] is reported as 0.035%.
